{"source": "patent US20220403005", "key": {"[1]": {"test_system": "FVIII-R336Q/R562Q (FVIII-QQ)", "sequence (chain, as listed by the source R336Q R562Q)": "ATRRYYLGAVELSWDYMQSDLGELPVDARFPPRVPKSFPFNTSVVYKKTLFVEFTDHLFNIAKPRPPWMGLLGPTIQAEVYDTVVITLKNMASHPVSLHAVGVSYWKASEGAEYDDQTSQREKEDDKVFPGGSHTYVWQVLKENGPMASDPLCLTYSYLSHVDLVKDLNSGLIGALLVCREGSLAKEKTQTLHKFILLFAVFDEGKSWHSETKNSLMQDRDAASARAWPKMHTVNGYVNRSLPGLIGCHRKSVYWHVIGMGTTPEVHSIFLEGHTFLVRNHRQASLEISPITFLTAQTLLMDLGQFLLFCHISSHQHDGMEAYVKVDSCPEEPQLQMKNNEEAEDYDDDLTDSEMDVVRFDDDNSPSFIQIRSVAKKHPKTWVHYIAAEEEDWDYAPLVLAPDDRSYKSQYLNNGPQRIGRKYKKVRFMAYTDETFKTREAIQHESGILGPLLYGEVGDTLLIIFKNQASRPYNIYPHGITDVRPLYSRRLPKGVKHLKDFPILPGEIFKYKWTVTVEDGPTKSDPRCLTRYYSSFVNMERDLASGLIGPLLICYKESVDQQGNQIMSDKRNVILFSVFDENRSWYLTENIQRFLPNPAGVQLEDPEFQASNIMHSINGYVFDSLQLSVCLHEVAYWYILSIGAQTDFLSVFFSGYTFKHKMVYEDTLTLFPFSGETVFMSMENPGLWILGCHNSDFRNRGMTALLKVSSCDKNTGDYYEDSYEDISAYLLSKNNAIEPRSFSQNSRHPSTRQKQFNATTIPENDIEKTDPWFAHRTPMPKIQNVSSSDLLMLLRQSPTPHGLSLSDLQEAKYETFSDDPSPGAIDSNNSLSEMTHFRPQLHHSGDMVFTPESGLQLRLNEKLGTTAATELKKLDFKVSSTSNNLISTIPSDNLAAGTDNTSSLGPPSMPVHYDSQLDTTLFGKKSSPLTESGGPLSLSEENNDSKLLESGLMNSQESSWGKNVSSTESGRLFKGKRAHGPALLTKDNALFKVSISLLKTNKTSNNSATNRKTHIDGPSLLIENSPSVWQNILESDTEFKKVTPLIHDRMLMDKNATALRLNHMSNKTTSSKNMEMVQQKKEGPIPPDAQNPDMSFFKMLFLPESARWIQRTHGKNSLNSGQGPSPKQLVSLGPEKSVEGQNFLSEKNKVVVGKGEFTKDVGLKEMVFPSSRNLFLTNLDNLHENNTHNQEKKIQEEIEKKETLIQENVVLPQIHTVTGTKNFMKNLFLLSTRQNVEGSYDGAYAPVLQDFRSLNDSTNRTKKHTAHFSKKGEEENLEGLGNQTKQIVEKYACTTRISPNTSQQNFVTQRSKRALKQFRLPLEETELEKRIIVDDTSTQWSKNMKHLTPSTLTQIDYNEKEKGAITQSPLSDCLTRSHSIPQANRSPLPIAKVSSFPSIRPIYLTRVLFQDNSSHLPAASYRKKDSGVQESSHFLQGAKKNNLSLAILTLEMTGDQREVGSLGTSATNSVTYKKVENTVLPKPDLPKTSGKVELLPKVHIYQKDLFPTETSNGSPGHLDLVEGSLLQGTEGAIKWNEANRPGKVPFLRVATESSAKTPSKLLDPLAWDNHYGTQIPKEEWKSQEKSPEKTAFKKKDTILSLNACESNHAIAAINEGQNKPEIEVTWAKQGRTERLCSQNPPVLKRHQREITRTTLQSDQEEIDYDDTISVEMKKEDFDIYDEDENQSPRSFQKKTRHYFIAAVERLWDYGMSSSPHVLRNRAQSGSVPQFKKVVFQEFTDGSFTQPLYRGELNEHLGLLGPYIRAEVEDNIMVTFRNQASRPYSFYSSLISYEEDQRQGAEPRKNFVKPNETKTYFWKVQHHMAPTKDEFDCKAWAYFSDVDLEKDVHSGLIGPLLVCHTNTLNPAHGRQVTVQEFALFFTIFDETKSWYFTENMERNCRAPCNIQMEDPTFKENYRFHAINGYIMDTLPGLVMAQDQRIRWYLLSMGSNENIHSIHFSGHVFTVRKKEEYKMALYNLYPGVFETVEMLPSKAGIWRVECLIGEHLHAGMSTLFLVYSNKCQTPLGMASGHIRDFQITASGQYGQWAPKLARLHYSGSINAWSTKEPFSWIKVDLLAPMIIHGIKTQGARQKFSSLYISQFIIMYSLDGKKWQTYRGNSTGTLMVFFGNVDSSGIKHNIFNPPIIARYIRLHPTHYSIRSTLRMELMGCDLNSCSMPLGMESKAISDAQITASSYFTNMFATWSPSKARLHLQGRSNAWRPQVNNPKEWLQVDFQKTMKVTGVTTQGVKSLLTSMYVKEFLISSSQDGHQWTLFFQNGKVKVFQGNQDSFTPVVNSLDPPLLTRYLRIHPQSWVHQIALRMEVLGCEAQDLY"}, "[2]": {"test_system": "wild-type B-domain deleted FVIII (FVIII-WT)", "sequence (chain, as listed by the source, stated change not applied)": "as the sequence (chain, as listed by the source R336Q R562Q) above, with Q336R, Q562R counted along it"}}, "data": [{"substance": "thrombin", "values": [{"measurement": "SDS-PAGE of cleavage products after incubation with thrombin", "setting": "[1]", "result": "Thrombin cleaved both proteins to yield fragments representing cleavage at R1689 (A3-C1-C2; Mr=70,000) and R740/R372 (A1, Mr=50,000 and A2, Mr=43,000), corresponding to FVIIIa"}, {"measurement": "SDS-PAGE of cleavage products after incubation with thrombin", "setting": "[2]", "result": "Thrombin cleaved both proteins to yield fragments representing cleavage at R1689 (A3-C1-C2; Mr=70,000) and R740/R372 (A1, Mr=50,000 and A2, Mr=43,000), corresponding to FVIIIa"}]}, {"substance": "activated protein C (APC)", "values": [{"measurement": "residual FVIII activity (intrinsic Xase assay) after 1-hour APC incubation", "setting": "[1]", "result": "the protein maintained >90% activity following a 1-hour APC incubation"}, {"measurement": "residual FVIII activity (intrinsic Xase assay) after incubation with 6 nM APC and 100 nM protein S", "setting": "[1]", "result": "combined PS and APC incubation also accelerated FVIII-QQ loss of function, albeit to a lesser extent than FVIII-WT"}, {"measurement": "western blot of reaction products after 30-minute incubation with APC", "setting": "FVIII-R372Q", "result": "incubating a FVIII-R372Q mutant with APC, which did not produce the A2 fragment"}, {"measurement": "loss of FVIII activity (intrinsic Xase assay) after 1-hour APC incubation", "setting": "[2]", "result": "FVIII-WT lost approximately 75% activity after a 1-hour APC incubation"}, {"measurement": "residual FVIII activity (intrinsic Xase assay) after incubation with 6 nM APC and 100 nM protein S", "setting": "[2]", "result": "FVIII-WT lost nearly all function within 15 minutes of combined APC and PS incubation"}]}]}
